Results as given in patent publication US20260265385A1 (ANAPTYSBIO, published 2026).

T1: human IL-2Rβ (CD122), full-length, on cells (human, UniProt P14784 27-551)
T1 construct: whole, on cells; also called human IL-2Rβγ; human IL-2βγ
T1 sequence (looked up): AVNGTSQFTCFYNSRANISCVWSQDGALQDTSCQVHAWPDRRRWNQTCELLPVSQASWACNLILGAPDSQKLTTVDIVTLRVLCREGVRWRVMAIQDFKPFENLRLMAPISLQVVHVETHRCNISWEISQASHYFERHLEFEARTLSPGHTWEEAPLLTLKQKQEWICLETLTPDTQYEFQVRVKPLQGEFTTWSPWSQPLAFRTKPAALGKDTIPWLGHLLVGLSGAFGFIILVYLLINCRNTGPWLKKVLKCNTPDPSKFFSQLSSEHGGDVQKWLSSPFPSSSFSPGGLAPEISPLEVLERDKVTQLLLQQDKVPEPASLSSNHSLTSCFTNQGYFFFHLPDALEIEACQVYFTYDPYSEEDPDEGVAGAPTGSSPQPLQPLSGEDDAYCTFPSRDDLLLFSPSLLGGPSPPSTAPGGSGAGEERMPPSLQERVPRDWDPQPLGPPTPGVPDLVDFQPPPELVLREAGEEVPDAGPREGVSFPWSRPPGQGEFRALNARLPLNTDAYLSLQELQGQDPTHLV

T2: recombinant cynomolgus IL-2Rβ (extracellular domain, Ala1-Thr215) (cynomolgus, UniProt Q38J85 27-240)
T2 construct: extracellular domain; Analyte in SPR; also called cynomolgus LL-2Rβ; Cyno IL-2RB
T2 sequence (looked up): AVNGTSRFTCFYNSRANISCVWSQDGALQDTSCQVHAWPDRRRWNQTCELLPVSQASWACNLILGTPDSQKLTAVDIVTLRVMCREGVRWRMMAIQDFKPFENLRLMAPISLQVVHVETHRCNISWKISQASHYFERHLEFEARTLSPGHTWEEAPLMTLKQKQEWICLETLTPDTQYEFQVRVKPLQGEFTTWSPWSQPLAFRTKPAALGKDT

T3: recombinant human IL-2Rβ (extracellular domain, Ala1-Thr215) (human, UniProt P14784 27-240)
T3 construct: extracellular domain; Analyte in SPR; Ala1-Thr215 is counted on the mature protein; also called human LL-2Rβ; Human IL-2RB
T3 sequence (looked up): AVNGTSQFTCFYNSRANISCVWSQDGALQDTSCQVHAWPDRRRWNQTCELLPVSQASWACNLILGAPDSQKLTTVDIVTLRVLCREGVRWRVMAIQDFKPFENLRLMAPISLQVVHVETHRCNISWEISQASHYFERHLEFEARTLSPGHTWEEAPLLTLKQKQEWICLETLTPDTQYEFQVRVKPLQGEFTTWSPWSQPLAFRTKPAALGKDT

T4: cynomolgus IL-2Rβ (CD122), full-length, on cells (cynomolgus, UniProt Q38J85 27-551)
T4 construct: whole, on cells; Co-expressed with full-length cynomolgus IL-2Rγ on CHO-K1 cells; also called cynomolgus IL-2Rβγ; cyno IL-2βγ
T4 sequence (looked up): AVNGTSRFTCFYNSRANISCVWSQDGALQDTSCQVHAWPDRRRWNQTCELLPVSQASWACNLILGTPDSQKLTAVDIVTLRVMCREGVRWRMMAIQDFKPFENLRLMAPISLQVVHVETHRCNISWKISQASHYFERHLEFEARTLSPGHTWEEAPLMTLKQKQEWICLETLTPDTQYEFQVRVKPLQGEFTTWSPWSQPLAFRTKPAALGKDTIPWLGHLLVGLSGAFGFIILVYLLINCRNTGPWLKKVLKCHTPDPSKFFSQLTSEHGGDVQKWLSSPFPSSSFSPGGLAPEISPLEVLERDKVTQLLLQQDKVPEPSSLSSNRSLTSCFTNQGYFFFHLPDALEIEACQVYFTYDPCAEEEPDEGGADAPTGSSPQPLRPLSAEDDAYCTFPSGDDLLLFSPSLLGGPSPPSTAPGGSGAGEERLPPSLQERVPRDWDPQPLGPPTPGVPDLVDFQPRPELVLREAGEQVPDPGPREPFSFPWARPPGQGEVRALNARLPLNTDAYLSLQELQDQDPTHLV

B1: APE15295 (antibody)
heavy: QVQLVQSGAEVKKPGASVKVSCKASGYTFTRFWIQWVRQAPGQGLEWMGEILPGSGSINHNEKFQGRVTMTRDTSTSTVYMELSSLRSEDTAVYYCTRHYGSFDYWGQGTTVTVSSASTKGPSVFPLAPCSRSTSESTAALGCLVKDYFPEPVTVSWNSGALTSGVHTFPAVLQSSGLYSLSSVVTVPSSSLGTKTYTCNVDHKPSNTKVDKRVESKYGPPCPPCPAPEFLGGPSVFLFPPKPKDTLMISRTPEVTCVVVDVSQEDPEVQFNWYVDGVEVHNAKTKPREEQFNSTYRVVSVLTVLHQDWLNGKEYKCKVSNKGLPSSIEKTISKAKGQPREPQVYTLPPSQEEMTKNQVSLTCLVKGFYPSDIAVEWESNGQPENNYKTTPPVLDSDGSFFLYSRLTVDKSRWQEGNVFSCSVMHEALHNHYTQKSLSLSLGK
light: DIQMTQSPSSLSASVGDRVTITCKASQNVGTDVAWYQQKPGKAPKSLIYSASYRYSGVPSRFSGSGSGTDFTLTISSLQPEDFATYFCHQYESYPFTFGQGTKLEIKRTVAAPSVFIFPPSDEQLKSGTASVVCLLNNFYPREAKVQWKVDNALQSGNSQESVTEQDSKDSTYSLSSTLTLSKADYEKHKVYACEVTHQGLSSPVTKSFNRGEC
notes: M6-p1625 series
B2: APE15140 (antibody, V domains shown)
VH: EVQLVQSGAEVKKPGATVKISCKVSGFNFKESLIHWVQQAPGKGLEWMGWIDNEAGETEYAPGFQDRVTITADTSTDTAYMELSSLRSEDTAVYYCARGGPWFLSYWGQGTTVTVSS
VL: EIVMTQSPATLSVSPGERATLSCRASQIISNNLHWYQQKPGQAPRLLIIYGLQSISGIPARFSGSRSGTEFTLTISSLQSEDFAVYYCQQSNNWPWTFGQGTKLEIKR
notes: M10-1275 series
B3: APE15169 (antibody, V domains shown)
VH: EVQLVQSGAEVKKPGATVKISCKVSGFNFKESLIHWVQQAPGKGLEWMGWIDNEAGETEYAPGFQDRVTITADTSTDTAYMELSSLRSEDTAVYYCARGGPWFLSYWGQGTTVTVSS
VL: EIVMTQSPATLSVSPGERATLSCRASQIISNNLHWYQQKPGQAPRLLIIYGLQSISGIPARFSGSRSGTEFTLTISSLQSEDFAVYFCQQSNNWPYTFGQGTKLEIKR
notes: M10-1275 series
B4: APE12705 (antibody, V domains shown)
VH: DVQLQQSGAELARPGASVKLSCTVSGFNFKDSLMHWVTQGPERGLRWIGWIDSENGETEYAPGFQDKATITADTSSSTVYLHLSSLTSEDTAIYYCARGGPWFLSYWGPGTTLTVSS
VL: DIVLTQTPATLSVTPGDSVSLSCRASQIISNNLHWYQQKSHESPRLLIIYGLQSISGIPYRFSGRRSGTDFTLNINSVEIEDFGMYFCQQSNNWPWTFGGGTKLDIRR
notes: M10-1275 series; human kappa detected by the secondary antibody; also called APE 12705.02; M10-1275
B5: APE12383 (antibody, V domains shown)
VH: QVQLQQSGAELMKPGASVKISCKSTGYTFSRYWIEWVKQRPGHGLEWIGEILPGSGSINHNEKFQGKATFTADTSSNTVYMQLSSLTSEDSAVYFCTRHYGSFDYWGQGTTLTVSS
VL: EIVMTQSPKFMSTSVGDRVSVTCKASQNVGTDVAWYQQKPGQSPKALIYSASYRYNGVPDRFTGSGSGTDFTLTISNVQSEDLAEYFCHQYSSYPFTFGSGTKLEIKR
notes: M6-p1625 series; human kappa detected by the secondary antibody; also called APE 12383.03; M6-p1625
B6: APE15170 (antibody)
heavy: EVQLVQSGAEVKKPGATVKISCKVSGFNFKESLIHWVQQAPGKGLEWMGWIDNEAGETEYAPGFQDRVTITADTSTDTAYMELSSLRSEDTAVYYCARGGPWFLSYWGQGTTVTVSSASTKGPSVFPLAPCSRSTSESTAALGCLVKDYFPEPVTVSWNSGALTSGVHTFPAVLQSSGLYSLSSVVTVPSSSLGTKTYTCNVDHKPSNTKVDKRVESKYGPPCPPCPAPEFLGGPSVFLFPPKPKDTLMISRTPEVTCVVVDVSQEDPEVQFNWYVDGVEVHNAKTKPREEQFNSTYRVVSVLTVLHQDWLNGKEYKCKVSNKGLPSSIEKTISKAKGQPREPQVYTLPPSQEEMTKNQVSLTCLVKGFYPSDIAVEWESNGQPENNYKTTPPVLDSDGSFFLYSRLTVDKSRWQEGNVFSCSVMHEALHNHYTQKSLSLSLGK
light: EIVMTQSPATLSVSPGERATLSCRASQIISNNLHWYQQKPGQAPRLLIIYGLQSISGIPARFSGSRSGTEFTLTISSLQSEDFAVYFCQQSNNFPWTFGQGTKLEIKRTVAAPSVFIFPPSDEQLKSGTASVVCLLNNFYPREAKVQWKVDNALQSGNSQESVTEQDSKDSTYSLSSTLTLSKADYEKHKVYACEVTHQGLSSPVTKSFNRGEC
notes: M10-1275 series

Tests used:
[1] = target: T1, human IL-2Rβ (CD122), full-length, on …; test: flow cytometry competition: antibody titrated against recombinant IL-2 (5 nM) binding to HEK293 cells expressing human IL-2Rβ and IL-2Rγ
Description: (§1) HEK293 cells stably transfected with human IL-2Rβ and IL-2Rγ were plated at 100,000 cells/well in a 96 well plate. Antibodies were titrated at the concentrations indicated in FIG. 8 starting at 100 nM and diluted 1:3, and added to the cells. Recombinant IL-2 (5 nM) or recombinant IL-15 (2 nM) were also added to the cells. Cells were incubated for 30 minutes on a plate shaker at 4° C. Cells were washed and then analyzed on a flow cytometer, and data were analyzed using Novoexpress and GraphPad Prism software.

[2] = target: T1, human IL-2Rβ (CD122), full-length, on …; test: flow cytometry competition: antibody titrated against recombinant IL-15 (2 nM) binding to HEK293 cells expressing human IL-2Rβ and IL-2Rγ
Description: as §1

[3] = target: T2, recombinant cynomolgus IL-2Rβ …; test: SPR, antibody captured on Protein A chip
Procedure, shortened: (§2)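 Antibodies captured on a Protein A chip (0.5 μg/mL, 60 s), then exposed to IL-2Rβ extracellular domain (Ala1-Thr215) at about 0.4–11 nM; 300 s association, 1200 s dissociation. On- and off-rates and KD from a global 1:1 binding fit.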

[4] = target: T3, recombinant human IL-2Rβ (extracellular …); test: SPR, antibody captured on Protein A chip
Procedure, shortened: as §2

[5] = target: T4, cynomolgus IL-2Rβ (CD122), full-length, …; test: flow cytometry on CHO-K1 cells expressing cynomolgus IL-2Rβ and IL-2Rγ (panel 'Cell Binding cyno IL-2Rbg CHO'); unit taken from the axis 'Antibody Concentration nM'
Description: (§3) CHO-K1 cells stably expressing either full-length human or cyno IL-2Rβ and IL-2Rγ cultured in the log phase of growth were harvested with Accutase solution, resuspended in FACS buffer, and plated at 100,000 cells/well in a 96 well plate. The concentrations indicated in FIG. 5 of antibodies starting at 100 nM and diluted 1:3 were incubated with the cells for 45 minutes on a plate shaker at4° C. After washing, cells were incubated with goat anti-human kappa DyL650 secondary antibody for 20 minutes on a plate shaker at4° C. Cells were washed again and analyzed on a FACSArray flow cytometer. Data were analyzed using Novoexpress and GraphPad Prism software.

[6] = target: T1, human IL-2Rβ (CD122), full-length, on …; test: flow cytometry on CHO-K1 cells expressing human IL-2Rβ and IL-2Rγ (panel 'Cell Binding human IL-2Rbg CHO'); unit taken from the axis 'Antibody Concentration nM'
Description: as §3

[7] = target: T2, recombinant cynomolgus IL-2Rβ …; test: SPR
[8] = target: T3, recombinant human IL-2Rβ (extracellular …); test: SPR
[9] = target: T4, cynomolgus IL-2Rβ (CD122), full-length, …; test: flow cytometry on CHO-K1 cells expressing cynomolgus IL-2Rβ and IL-2Rγ
Description: (§4) CHO-K1 cells stably expressing full-length human or cynomolgus IL-2Rβ and IL-2Rγ cultured in the log phase of growth were harvested with Accutase solution, resuspended in FACS buffer, and plated at 100,000 cells/well in a 96-well plate. The concentrations of antibodies indicated in FIGS. 1 and 2 starting at 100 nM and diluted 1:3 were incubated with the cells for 45 minutes on a plate shaker at 4° C. After washing, the cells were incubated with goat-anti-human kappa DyL650 secondary antibody for 20 minutes on a plate shaker at 4° C. Cells were washed again and analyzed on a FACSArray flow cytometer. Data were analyzed using Novoexpress and GraphPad Prism software. Table 3 lists anti-CD122 chimeric antibody binding characteristics: affinity to human and cyno CD122 protein (KD, measured by SPR assay), ability to block IL-2 (SPR assay), and binding EC50 to cell-expressed human and cyno CD122/CD132 (cell-based receptor binding assay).

[10] = target: T1, human IL-2Rβ (CD122), full-length, on …; test: flow cytometry on CHO-K1 cells expressing human IL-2Rβ and IL-2Rγ
Description: as §4

| Binder | IC50 (read off the curve) [1] [nM] | IC50 (read off the curve) [2] [nM] | Kd [3] [nM] | Kd [4] [nM] | EC50 [5] [nM] | EC50 [6] [nM] | Kd [7] [nM] | Kd [8] [nM] | EC50 [9] [nM] | EC50 [10] [nM] |
| --- | --- | --- | --- | --- | --- | --- | --- | --- | --- | --- |
| B1 | ~0.08 | ~0.05 | 0.0707 | 0.0557 |  |  |  |  |  |  |
| B2 |  |  | 0.0102 | 0.0217 | 0.18 | 0.138 |  |  |  |  |
| B3 |  |  | 0.0144 | 0.0995 | 0.333 | 0.308 |  |  |  |  |
| B4 |  |  | 0.02 | 0.08 |  |  | ~0.02 | ~0.08 | 0.0876 | 0.174 |
| B5 |  |  | 0.26 | 0.34 |  |  | ~0.26 | ~0.34 | 0.147 | 0.142 |
| B6 | ~0.4 | ~0.4 | 0.00487 | 0.0128 | 0.146 | 0.139 |  |  |  |  |
